Values belong to the binder of their own block, whether it stands above or below them.
Experiments:
Experiment in all cases: holdup assay
Design in all cases: key: below the threshold = too weak to quantify, mostly under pKd 3.1 to 4
[1] = target: T1, APBA1_1, Q02410
T1 sequence (Q02410 651-752, limits assumed, looked up): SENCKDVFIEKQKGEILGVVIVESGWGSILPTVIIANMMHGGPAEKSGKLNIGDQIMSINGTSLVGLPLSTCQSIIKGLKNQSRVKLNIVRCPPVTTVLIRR

[2] = target: T2, APBA2_1, Q99767
T2 sequence (Q99767 563-664, limits assumed, looked up): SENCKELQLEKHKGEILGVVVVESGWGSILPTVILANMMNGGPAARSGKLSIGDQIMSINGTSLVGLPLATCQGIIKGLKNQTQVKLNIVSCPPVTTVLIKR

[3] = target: T3, APBA2_2, Q99767
T3 sequence (Q99767 654-744, limits assumed, looked up): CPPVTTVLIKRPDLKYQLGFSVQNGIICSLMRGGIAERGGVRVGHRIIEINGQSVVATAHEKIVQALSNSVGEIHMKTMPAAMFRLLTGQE

[4] = target: T4, ARHGEF11, O15085
T4 sequence (O15085 42-136, limits assumed, looked up): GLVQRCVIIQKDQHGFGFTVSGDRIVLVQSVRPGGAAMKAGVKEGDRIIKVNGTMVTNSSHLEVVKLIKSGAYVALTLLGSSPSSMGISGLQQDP

[5] = target: CASK, O14936
[6] = target: T5, DFNB31_1, Q9P202
T5 sequence (Q9P202 135-233, limits assumed, looked up): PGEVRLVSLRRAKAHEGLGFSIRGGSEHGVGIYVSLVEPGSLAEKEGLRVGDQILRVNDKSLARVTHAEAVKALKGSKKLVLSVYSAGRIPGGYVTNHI

[7] = target: DLG1_2, Q12959
[8] = target: DLG1_3, Q12959
[9] = target: T6, DLG3_3, Q92796
T6 sequence (Q92796 374-475, limits assumed, looked up): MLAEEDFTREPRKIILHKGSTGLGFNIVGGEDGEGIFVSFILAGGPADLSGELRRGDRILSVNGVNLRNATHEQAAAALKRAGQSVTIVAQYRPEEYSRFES

[10] = target: DLG4_1, P78352
[11] = target: FRMPD4, Q14CM0
[12] = target: GOPC, Q9HD26
[13] = target: GORASP2, Q9H8Y8
[14] = target: GRID2IP_2, A4D2P6
[15] = target: T7, GRIP1_2, Q9Y3R0
T7 sequence (Q9Y3R0 145-248, limits assumed, looked up): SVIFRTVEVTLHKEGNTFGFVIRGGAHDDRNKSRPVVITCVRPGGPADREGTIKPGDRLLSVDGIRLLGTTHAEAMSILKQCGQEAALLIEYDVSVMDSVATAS

[16] = target: T8, GRIP1_5, Q9Y3R0
T8 sequence (Q9Y3R0 568-668, limits assumed, looked up): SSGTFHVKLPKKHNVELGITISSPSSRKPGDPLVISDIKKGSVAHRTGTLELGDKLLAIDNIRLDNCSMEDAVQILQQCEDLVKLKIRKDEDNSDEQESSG

[17] = target: IL16_1, Q14005
[18] = target: IL16_3, Q14005
[19] = target: LNX1_1, Q8TBB1
[20] = target: LNX1_2, Q8TBB1
[21] = target: T9, MPDZ_5, O75970
T9 sequence (O75970 695-796, limits assumed, looked up): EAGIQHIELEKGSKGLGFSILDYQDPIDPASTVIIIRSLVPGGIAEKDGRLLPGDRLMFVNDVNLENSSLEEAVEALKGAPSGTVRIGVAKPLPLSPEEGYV

[22] = target: T10, MPP2, Q14168
T10 sequence (Q14168 180-250, limits assumed, looked up): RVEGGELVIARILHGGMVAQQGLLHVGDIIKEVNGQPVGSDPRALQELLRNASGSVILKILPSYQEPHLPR

[23] = target: T11, NHERF3_3, Q5T2W1
T11 sequence (Q5T2W1 238-333, limits assumed, looked up): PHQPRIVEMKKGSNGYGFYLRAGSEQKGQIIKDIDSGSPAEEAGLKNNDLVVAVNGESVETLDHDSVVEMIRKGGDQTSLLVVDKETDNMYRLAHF

[24] = target: NHERF4_4, Q86UT5
[25] = target: T12, SNTB1, Q13884
T12 sequence (Q13884 107-205, limits assumed, looked up): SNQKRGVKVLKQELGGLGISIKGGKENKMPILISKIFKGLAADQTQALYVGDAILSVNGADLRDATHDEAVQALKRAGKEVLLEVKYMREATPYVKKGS

[26] = target: TJP1_3, Q07157
[27] = plain residues with an end cap or a label only (N-terminal biotin on a linker: ado-ado)
[28] = modified: phospho on T at position -2 from the C-terminal residue

Sequence of LNX1_2, Q8TBB1 (Q8TBB1 371-470): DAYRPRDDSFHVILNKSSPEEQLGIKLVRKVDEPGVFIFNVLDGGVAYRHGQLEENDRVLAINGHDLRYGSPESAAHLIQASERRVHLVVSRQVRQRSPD
Sequence of TJP1_3, Q07157 (Q07157 416-512): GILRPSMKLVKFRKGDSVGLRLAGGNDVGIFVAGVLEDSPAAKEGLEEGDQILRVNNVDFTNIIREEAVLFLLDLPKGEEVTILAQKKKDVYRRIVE
Sequence of CASK, O14936 (O14936 487-570): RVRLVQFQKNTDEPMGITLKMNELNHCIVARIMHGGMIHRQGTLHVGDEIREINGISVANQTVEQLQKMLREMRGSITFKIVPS
Sequence of LNX1_1, Q8TBB1 (Q8TBB1 261-371): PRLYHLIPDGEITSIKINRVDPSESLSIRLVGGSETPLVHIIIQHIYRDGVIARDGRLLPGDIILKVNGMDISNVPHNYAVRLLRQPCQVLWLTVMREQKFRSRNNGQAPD
Sequence of DLG4_1, P78352 (P78352 62-152): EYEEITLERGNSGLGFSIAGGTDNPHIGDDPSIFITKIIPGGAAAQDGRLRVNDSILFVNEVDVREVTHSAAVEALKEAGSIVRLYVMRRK
Sequence of DLG1_2, Q12959 (Q12959 314-412): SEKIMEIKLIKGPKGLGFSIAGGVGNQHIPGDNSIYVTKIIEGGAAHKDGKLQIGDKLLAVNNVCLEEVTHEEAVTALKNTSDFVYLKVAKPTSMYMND
Sequence of GRID2IP_2, A4D2P6 (A4D2P6 272-370): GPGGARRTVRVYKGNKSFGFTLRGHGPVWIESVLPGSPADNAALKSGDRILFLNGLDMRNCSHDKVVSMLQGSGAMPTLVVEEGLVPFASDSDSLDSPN
Sequence of FRMPD4, Q14CM0 (Q14CM0 67-160): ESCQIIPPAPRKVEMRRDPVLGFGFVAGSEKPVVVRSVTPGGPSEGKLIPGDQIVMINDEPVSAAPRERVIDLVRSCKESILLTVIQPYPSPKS
Sequence of IL16_3, Q14005 (Q14005 1107-1207): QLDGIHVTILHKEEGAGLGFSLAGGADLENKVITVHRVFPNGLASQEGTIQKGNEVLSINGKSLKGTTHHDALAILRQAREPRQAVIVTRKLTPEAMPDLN
Sequence of DLG1_3, Q12959 (Q12959 457-571): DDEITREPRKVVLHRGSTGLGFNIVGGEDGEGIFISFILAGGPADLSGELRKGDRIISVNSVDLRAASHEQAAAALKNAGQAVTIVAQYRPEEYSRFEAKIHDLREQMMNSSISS
Sequence of IL16_1, Q14005 (Q14005 210-306): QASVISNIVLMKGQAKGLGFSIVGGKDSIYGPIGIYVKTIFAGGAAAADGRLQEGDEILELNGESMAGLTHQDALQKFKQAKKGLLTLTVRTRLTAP
Sequence of NHERF4_4, Q86UT5 (Q86UT5 464-550): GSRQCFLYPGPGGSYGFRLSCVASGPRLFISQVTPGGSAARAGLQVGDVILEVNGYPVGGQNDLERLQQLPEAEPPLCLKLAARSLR

pKd [1, 27]: below the threshold | pKd [2, 27]: 3.59 | pKd [3, 27]: below the threshold | pKd [4, 27]: 4.09 | pKd [5, 27]: below the threshold | pKd [6, 27]: below the threshold | pKd [7, 27]: below the threshold | pKd [8, 27]: below the threshold | pKd [9, 27]: below the threshold | pKd [10, 27]: 3.6 | pKd [11, 27]: 3.93 | pKd [12, 27]: below the threshold | pKd [13, 27]: 4.37 | pKd [14, 27]: below the threshold | pKd [15, 27]: below the threshold | pKd [16, 27]: below the threshold | pKd [17, 27]: below the threshold | pKd [18, 27]: below the threshold | pKd [19, 27]: 3.66 | pKd [20, 27]: 3.75 | pKd [21, 27]: below the threshold | pKd [22, 27]: below the threshold | pKd [23, 27]: below the threshold | pKd [24, 27]: below the threshold | pKd [25, 27]: below the threshold | pKd [26, 27]: below the threshold
Binder: GQSVDLVFPV [AKIP1, Q9NQ31]

pKd [1, 28]: below the threshold | pKd [2, 28]: below the threshold | pKd [3, 28]: below the threshold | pKd [4, 28]: below the threshold | pKd [5, 28]: below the threshold | pKd [6, 28]: below the threshold | pKd [7, 28]: below the threshold | pKd [8, 28]: below the threshold | pKd [9, 28]: below the threshold | pKd [10, 28]: below the threshold | pKd [11, 28]: 3.48 | pKd [12, 28]: below the threshold | pKd [13, 28]: 3.71 | pKd [14, 28]: below the threshold | pKd [15, 28]: 3.52 | pKd [16, 28]: below the threshold | pKd [17, 28]: below the threshold | pKd [18, 28]: below the threshold | pKd [19, 28]: below the threshold | pKd [20, 28]: below the threshold | pKd [21, 28]: below the threshold | pKd [22, 28]: below the threshold | pKd [23, 28]: below the threshold | pKd [24, 28]: below the threshold | pKd [25, 28]: below the threshold | pKd [26, 28]: below the threshold
Binder: RRVRKLPSTTL [RPS6KA1_-2P, Q15418]

From publication PMC9482650, “Quantitative fragmentomics allow affinity mapping of interactomes” (Nature Communications, 2022)
